The source of these data is patent US20220273751A1, “GPCR HETEROMER INHIBITORS AND USES THEREOF” (GPCR THERAPEUTICS, INC., priority 2019, published 2022).

This assay concerns the target T1, CXCR4-VC (CXCR4 fused with C-terminal fragment of Venus) (human).
T1 chain: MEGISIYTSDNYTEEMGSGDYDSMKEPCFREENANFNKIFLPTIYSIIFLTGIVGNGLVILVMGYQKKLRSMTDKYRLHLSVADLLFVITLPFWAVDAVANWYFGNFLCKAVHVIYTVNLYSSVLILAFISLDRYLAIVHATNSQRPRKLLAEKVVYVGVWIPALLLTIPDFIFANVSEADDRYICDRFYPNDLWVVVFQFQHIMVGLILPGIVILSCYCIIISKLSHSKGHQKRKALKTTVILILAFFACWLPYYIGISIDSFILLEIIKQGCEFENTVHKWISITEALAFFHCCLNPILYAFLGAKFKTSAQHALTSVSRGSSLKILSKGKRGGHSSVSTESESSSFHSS
The assay is described as follows: BiFC, U-2 OS cells co-transduced with adenoviruses (30 MOI each). Particulars: remark: other sources report otherwise; scale: BiFC score =.

B1: CXCR4-VN (CXCR4 fused with N-terminal fragment of yellow fluorescent protein Venus), P61072 1-352 (receptor, not shown: small tags and cut ends)
chain: T1 chain
modifications: here or on the partner: Venus N-terminal fragment (VN) fused to the receptor. Its letters are not given, so it is left out.; Venus C-terminal fragment (VC) fused to the receptor. Its letters are not given, so it is left out.
The molecule B1 returned a BiFC score of 9.9.
